Experimental data as given in patent US20240209076A1 (KODIAK SCIENCES, published 2024).
Positions count from the first letter of the chain named. Numbers in names are those of the source.

B1: VEGFR-Anti-IL-6 (sequences 1A-2A-3H, light chain 4A) (other)
heavy: SDTGRPFVEMYSEIPEIIHMTEGRELVIPCRVTSPNITVTLKKFPLDTLIPDGKRIIWDSRKGFIISNATYKEIGLLTCEATVNGHLYKTNYLTHRQTNTIIDVVLSPSHGIELSVGEKLVLNCTARTELNVGIDFNWEYPSSKHQHKKLVNRDLKTQSGSEMKKFLSTLTIDGVTRSDQGLYTCAASSGLMTKKNSTFVRVHEKGGGGSGGGGSEVQLVESGGGLVQPGGSLRLSCAASGFTFSPFAISWVRQAPGKGLEWVAKISPGGSWTYYSDTVTDRFTFSLDTSKSTAYLQMNSLRAEDTAVYYCARQLWGYYALDVWGQGTLVTVSSASTKGPSVFPLAPSSKSTSGGTAALGCLVKDYFPEPVTVSWNSGALTSGVHTFPAVLQSSGLYSLSSVVTVPSSSLGTQTYICNVNHKPSNTKVDKKVEPKSCDKTHTCPPCPAPEAAGAPSVFLFPPKPKDTLMISRTPEVTCVVVDVSHEDPEVKFNWYVDGVEVHNAKTKPREEQYNSTYRVVSVLTVLHQDWLNGKEYKCKVSNKALPAPIEKTISKAKGQPREPQVYTLPPSREEMTKNQVSLTCLVKGFYPSDIAVEWESNGQPENNYKTTPPVLDSDGSFFLYSKLTVDKSRWQQGNVFSCSVMHEALHNHYTQKSLSCSPGK
light: DIQLTQSPSSLSASVGDRVTITCSASISVSYLYWYQQKPGKAPKLLIYDDSSLASGVPSRFSGSGSGTDFTLTISSLQPEDFATYYCQQWSGYPYTFGQGTKVEIKRTVAAPSVFIFPPSDEQLKSGTASVVCLLNNFYPREAKVQWKVDNALQSGNSQESVTEQDSKDSTYSLSSTLTLSKADYEKHKVYACEVTHQGLSSPVTKSFNRGEC
notes: linker 2A is the double Gly-Gly-Gly-Gly-Ser repeat
B2: anti-IL-6 antibody, heavy chain S35H G66D, light chain M32L/M50D/N52S/M88Q (antibody, human IgG1, V domains shown)
VH: EVQLVESGGGLVQPGGSLRLSCAASGFTFSPFAMHWVRQAPGKGLEWVAKISPGGSWTYYSDTVTDRFTFSLDTSKSTAYLQMNSLRAEDTAVYYCARQLWGYYALDIWGQGTLVTVSS
VL: DIQLTQSPSSLSASVGDRVTITCSASISVSYLYWYQQKPGKAPKLLIYDDSSLASGVPSRFSGSGSGTDFTLTISSLQPEDFATYYCQQWSGYPYTFGQGTKVEIK
notes: see m23; engineered human IgG1; also called S35H G66D double mutant
B3: anti-IL-6 antibody, heavy chain S35H G66D, light chain wild-type (antibody, human IgG1, V domains shown)
VH: B2 VH
VL: B2 VL with L32M, D50M, S52N, Q88M
notes: as for B2
B4: anti-IL-6 antibody, heavy chain T65Q, G66D / light chain M32L, M50D, N52S, M88Q (antibody, IgG1, V domains shown)
VH: B2 VH with H35S, T65Q
VL: B2 VL
notes: Full IgG1 (Expi293); VL = variant III
B5: anti-IL-6 antibody, heavy chain T63K, G66D / light chain M32L, M50D, N52S, M88Q (antibody, IgG1, V domains shown)
VH: B2 VH with H35S, T63K
VL: B2 VL
notes: as for B4
B6: anti-IL-6 antibody, heavy chain G66D / light chain M32L, M50D, N52S, M88Q (antibody, IgG1, V domains shown)
VH: B2 VH with H35S
VL: B2 VL
notes: as for B4
B7: anti-IL-6 antibody, heavy chain S35H, G66D / light chain M32L, M50D, N52S, M88Q (antibody, IgG1, V domains shown)
VH: B2 VH
VL: B2 VL
notes: as for B4
B8: anti-IL-6 antibody, heavy chain T63Q, G66D / light chain M32L, M50D, N52S, M88Q (antibody, IgG1, V domains shown)
VH: B2 VH with H35S, T63Q
VL: B2 VL
notes: as for B4
B9: anti-IL-6 antibody, heavy chain T63E, G66D / light chain M32L, M50D, N52S, M88Q (antibody, IgG1, V domains shown)
VH: B2 VH with H35S, T63E
VL: B2 VL
notes: as for B4
B10: anti-IL-6 antibody, heavy chain WT / light chain M32L, M50D, N52S, M88Q (antibody, human IgG1, V domains shown)
VH: B2 VH with H35S, D66G
VL: B2 VL
notes: Human IgG1
B11: anti-IL-6 antibody, heavy chain T63K, G66D / light chain M32L, M50D, N52S, M88Q (antibody, human IgG1, V domains shown)
VH: B2 VH with H35S, T63K
VL: B2 VL
notes: Human IgG1
B12: anti-IL-6 antibody, heavy chain S35H, G66D / light chain M32L, M50D, N52S, M88Q (antibody, human IgG1, V domains shown)
VH: B2 VH
VL: B2 VL
notes: Human IgG1
B13: anti-IL-6 antibody, heavy chain T63Q, G66D / light chain M32L, M50D, N52S, M88Q (antibody, human IgG1, V domains shown)
VH: B2 VH with H35S, T63Q
VL: B2 VL
notes: Human IgG1
B14: anti-IL-6 antibody, heavy chain T65Q, G66D / light chain M32L, M50D, N52S, M88Q (antibody, human IgG1, V domains shown)
VH: B2 VH with H35S, T65Q
VL: B2 VL
notes: Human IgG1
B15: anti-IL-6 antibody, heavy chain G66D / light chain M32L, M50D, N52S, M88Q (antibody, human IgG1, V domains shown)
VH: B2 VH with H35S
VL: B2 VL
notes: Human IgG1
B16: anti-IL-6 antibody, heavy chain T63E, G66D / light chain M32L, M50D, N52S, M88Q (antibody, human IgG1, V domains shown)
VH: B2 VH with H35S, T63E
VL: B2 VL
notes: Human IgG1
B17: VEGFR-Fc (VEGF trap Fc fusion, sequence 6A) (Fc fusion)
chain: SDTGRPFVEMYSEIPEIIHMTEGRELVIPCRVTSPNITVTLKKFPLDTLIPDGKRIIWDSRKGFIISNATYKEIGLLTCEATVNGHLYKTNYLTHRQTNTIIDVVLSPSHGIELSVGEKLVLNCTARTELNVGIDFNWEYPSSKHQHKKLVNRDLKTQSGSEMKKFLSTLTIDGVTRSDQGLYTCAASSGLMTKKNSTFVRVHEKDKTHTCPPCPAPEAAGAPSVFLFPPKPKDTLMISRTPEVTCVVVDVSHEDPEVKFNWYVDGVEVHNAKTKPREEQYNSTYRVVSVLTVLHQDWLNGKEYKCKVSNKALPAPIEKTISKAKGQPREPQVYTLPPSREEMTKNQVSLTCLVKGFYPSDIAVEWESNGQPENNYKTTPPVLDSDGSFFLYSKLTVDKSRWQQGNVFSCSVMHEALHNHYTQKSLSCSPGK
notes: VEGF trap with engineered IgG1 Fc (L234A, L235A, G237A, L443C); also called VEGFR-Trap Fc fusion
B18: VEGFR_variant_1-Anti-IL-6 (T94I) (other)
fusion: B1 heavy with T94I
light: B1 light
B19: VEGFR_variant_3-Anti-IL-6 (T94I/H95I) (other)
fusion: B1 heavy with T94I, H95I
light: B1 light
B20: VEGFR_variant_2-Anti-IL-6 (H95I) (other)
fusion: B1 heavy with H95I
light: B1 light

What follows are binders tested against VEGF (UniProt P15692-4 27-191, limits assumed) (assay: cell-based or functional assay).
Chain of VEGF (P15692 other isoform, or with tags, fused parts or gaps limits assumed): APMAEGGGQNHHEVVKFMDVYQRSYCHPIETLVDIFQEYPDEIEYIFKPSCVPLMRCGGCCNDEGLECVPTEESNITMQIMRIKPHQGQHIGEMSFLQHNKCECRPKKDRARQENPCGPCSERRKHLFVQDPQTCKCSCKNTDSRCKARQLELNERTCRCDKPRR

Binder | cell-based VEGF stimulated VEGFR reporter assay (KDR/VEGF HEK293, luminescence), IC50 [nM]
B1 | 0.18

Each binder was assayed against recombinant human IL-6 (human, UniProt P05231 30-212) (assay: SPR, antibody captured on Protein A, 37 C).
Chain of recombinant human IL-6 (P05231 30-212 limits assumed): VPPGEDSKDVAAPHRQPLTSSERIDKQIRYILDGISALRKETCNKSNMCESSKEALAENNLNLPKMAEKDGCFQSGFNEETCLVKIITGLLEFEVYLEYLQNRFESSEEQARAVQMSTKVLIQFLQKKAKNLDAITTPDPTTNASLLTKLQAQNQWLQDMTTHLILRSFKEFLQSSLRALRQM
Description: (§1) Antibodies were captured on a Protein A chip (GE) by injecting 1:20 cell supernatant dilutions at 10 μL/min for 60 seconds. […] The sensor chip was regenerated by a 60 seconds injection of 10 mM Glycine pH 1.7 at the flow rate of 50 μL/min. […] For this setup, 1 μg/mL of purified antibody was injected over a Protein A chip at 10 μL/min for 25 seconds. […] The sensor chip was regenerated by a 60 seconds injection of 10 mM Glycine pH 1.7 at flow rate of 50 μL/min. Data analysis for supernatant and purified samples were performed using BIAevaluation software (GE). All sensorgrams were double reference subtracted and fit using a 1:1 Langmuir binding model.

Binder | fold increase in affinity [fold]
B2 | ~1.3
B3 | ~2

What follows are binders tested against T1, human IL-6 (human, UniProt P05231 30-212) (assay: SPR Biacore, purified Ab on Protein A chip, 37 C).
T1 construct: IL-6 flowed over captured antibodies
Description: as §1
T1 sequence (P05231 30-212 limits assumed): as above

Binder | Kd [nM] | koff [s⁻¹] | kon [M⁻¹ s⁻¹]
B4 | 0.209 | 0.00038 | 1.82e+06
B5 | 0.252 | 0.000401 | 1.59e+06
B6 | 0.244 | 0.000412 | 1.69e+06
B7 | 0.212 | 0.000254 | 1.2e+06
B8 | 0.201 | 0.000341 | 1.69e+06
B9 | 0.198 | 0.000327 | 1.65e+06

What follows are binders tested against T1, human IL-6 (assay: SPR Biacore, supernatant Ab on Protein A chip, 37 C).

Binder | Kd [nM] | koff [s⁻¹] | kon [M⁻¹ s⁻¹]
B4 | 0.258 | 0.000562 | 2.18e+06
B5 | 0.246 | 0.000529 | 2.15e+06
B6 | 0.296 | 0.000483 | 1.63e+06
B7 | 0.166 | 0.000539 | 3.24e+06
B8 | 0.259 | 0.000461 | 1.78e+06
B9 | 0.242 | 0.000485 | 2e+06

What follows are binders tested against T2, human IL-6 (human, UniProt P05231 30-212) (assay: SPR (Biacore), purified antibody on Protein A chip, IL-6 flowed, 37 C).
Description: as §1
T2 sequence (P05231 30-212 limits assumed): as above

Binder | Kd [nM] | koff [s⁻¹] | kon [M⁻¹ s⁻¹]
B10 | 0.286 | 0.000319 | 1.12e+06
B11 | 0.252 | 0.000401 | 1.59e+06
B12 | 0.212 | 0.000254 | 1.2e+06
B13 | 0.201 | 0.000341 | 1.69e+06
B14 | 0.209 | 0.00038 | 1.82e+06
B15 | 0.244 | 0.000412 | 1.69e+06
B16 | 0.198 | 0.000327 | 1.65e+06

These binders were tested against T2, human IL-6 (assay: SPR (Biacore), supernatant antibody on Protein A chip, IL-6 flowed, 37 C).

Binder | Kd [nM] | koff [s⁻¹] | kon [M⁻¹ s⁻¹]
B10 | 0.611 | 0.000414 | 677000
B11 | 0.246 | 0.000529 | 2.15e+06
B12 | 0.166 | 0.000539 | 3.24e+06
B13 | 0.259 | 0.000461 | 1.78e+06
B14 | 0.258 | 0.000562 | 2.18e+06
B15 | 0.296 | 0.000483 | 1.63e+06
B16 | 0.242 | 0.000485 | 2e+06

The binders below were run against T3, VEGF-A165 (UniProt P15692-4 27-191) (assay: SPR (Biacore T200), 37 C, binder captured on a Protein A chip, VEGF-A165 0.19 to 15 nM flowed over, 1:1 Langmuir fit).
T3 construct: analyte of the Biacore assays
T3 sequence (P15692 other isoform, or with tags, fused parts or gaps limits assumed): as the sequence (P15692 other isoform, or with tags, fused parts or gaps limits assumed) above

Binder | Kd [nM] | koff [s⁻¹] | kon [M⁻¹ s⁻¹]
B17 | 0.0102 | 9.29e-05 | 9.14e+06

Each binder was assayed against T3, VEGF-A165 (assay: Biacore T200 SPR at 37 C, binder captured on Protein A chip, VEGF-A165 0.19 to 15 nM in five steps, 60 min dissociation, 1:1 Langmuir fit).
Description: FIGS. 14A-14F illustrate the results for a series of Biacore assays used to determine the affinity between Anti-VEGF agents and VEGF. Binding kinetics between molecules were measured using a Biacore T200 (GE Healthcare) at 37° C. in buffer HBS-EP+ containing 1 mg/mL BSA. […] The sensor chip surface was regenerated by 60 seconds injection of 10 mM Glycine, pH 1.7 at a flow rate of 50 μl/min. All sensorgrams were double reference subtracted and fit using a 1:1 Langmuir binding model.

Binder | Kd [nM] | koff [s⁻¹] | kon [M⁻¹ s⁻¹]
B1 | 0.00798 | 0.000603 | 7.55e+07
B18 | 0.0185 | 0.00199 | 1.08e+08
B19 | 0.0187 | 0.00266 | 1.42e+08
B20 | 0.0143 | 0.00164 | 1.15e+08
